Measurements published in the supplement of paper PMC7877785.
± gives the uncertainty stated by the source.

Experiment: self-splicing fitness, log relative to wild type (ln ratio); higher = more splicing; Tetrahymena group I intron in knt gene, E. coli kanamycin selection, DiMSum; sequences stand for … in CUCUCU…GGAGGGAAAAGUUAUCAGGCAUGCACCUGGUAGCUAGUCUUUAAACCAAUAGAUUGCAUCGGUUUAAAAGGCAAGACCGUCAAAUUGCGGGAAAGGGGUCAACAGCCGUUCAGUACCAAGUCUCAGGGGAAACUUUGAGAUGGCCUUGCAAAGGGUAUGGUAAUAAGCUGACGGACAUGGUCCUAACCACGCAGCCAAGUCCUAAGUCAACAGAUCUUCUGUUGAUAUGGAUGCAGUUCACAGACUAAAUGUCGGUCGGGGAAGAUGUAUUCUUCUCAUAAGAUAUAGUCGGACCUCUCCUUAAUGGGAGCUAGCGGAUGAAGUGAUGCAACACUGGAGCCGCUGGGAACUAAUUUGUAUGCGAAAGUAUAUUGAUUAGUUUUGGAGUACUCGUGGUCG
In short: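 The eight P1ex-region nucleotides of an intron in the knt kanamycin-resistance gene on pET-22b(+) were all randomised and the library put into E. coli BL21(DE3). Six replicate transformations were grown overnight at 37°C or 30°C on LB agar with or without 25 μg/mL kanamycin, together with 100 μg/mL carbenicillin, 50 μM IPTG and 0.2% rhamnose. Colonies were pooled and amplicon-sequenced on an Illumina HiSeq 2500. Fitness from DiMSum is the error-weighted combination of wild-type-normalised replicate fold changes, kanamycin over none.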

Sequence	self-splicing fitness (ln) (30 °C)	self-splicing fitness (ln) (37 °C)
UAUUAGCAAUAUUACGUUGG	-2.1 ± 0.21	-0.685 ± 0.18
UCAAAGCAAUAUUACGAACC	-2.8 ± 0.27	-0.879 ± 0.28
UCAAAGCAAUAUUACGAAGU	-2.96 ± 0.16	-2.39 ± 0.24
UCAAAGCAAUAUUACGACCA	-1.97 ± 0.22	-1.4 ± 0.23
UCAAAGCAAUAUUACGACCC	-3.88 ± 0.35	-2.34 ± 0.39
UCAAAGCAAUAUUACGAUCG	-0.659 ± 0.085	-0.141 ± 0.11
UCAAAGCAAUAUUACGCACU	-2.08 ± 0.11	-2.5 ± 0.22
UCAAAGCAAUAUUACGCCCC	-2.12 ± 0.39	-1.54 ± 0.37
UCAAAGCAAUAUUACGCCUA	-2.71 ± 0.2	-0.722 ± 0.11
UCAAAGCAAUAUUACGCGAG	-0.91 ± 0.12	-0.54 ± 0.14
UCAAAGCAAUAUUACGCUCU	-3.71 ± 0.27	-2.69 ± 0.26
UCAAAGCAAUAUUACGCUGA	-3.43 ± 0.29	-1.62 ± 0.23
UCAAAGCAAUAUUACGCUUU	-3.89 ± 0.46	-1.72 ± 0.27
UCAAAGCAAUAUUACGGAAC	-4.3 ± 0.32	
UCAAAGCAAUAUUACGGACC		-2.54 ± 0.32
UCAAAGCAAUAUUACGGAGC		-3.53 ± 0.33
UCAAAGCAAUAUUACGGAUG	-2.78 ± 0.08	-1.32 ± 0.086
UCAAAGCAAUAUUACGGAUU	-3.73 ± 0.24	-2.26 ± 0.21
UCAAAGCAAUAUUACGGCCC	-3.79 ± 0.47	-2.18 ± 0.46
UCAAAGCAAUAUUACGGCGU	-0.917 ± 0.065	-0.201 ± 0.086
UCAAAGCAAUAUUACGGUCG	-0.405 ± 0.069	-0.439 ± 0.094
UCAAAGCAAUAUUACGGUUU	-3.06 ± 0.21	-3 ± 0.27
UCAAAGCAAUAUUACGUACC	-3.01 ± 0.3	-1.69 ± 0.3
UCAAAGCAAUAUUACGUCCU	-3.34 ± 0.29	-1.98 ± 0.24
UCAAAGCAAUAUUACGUUGC	-3.48 ± 0.19	-3.23 ± 0.26

Sequence	self-splicing fitness (ln) (30 °C)	self-splicing fitness (ln) (37 °C)
UCACAGCAAUAUUACGAUCC	-3.08 ± 0.2	-2.03 ± 0.22
UCACAGCAAUAUUACGAUUC	-3.61 ± 0.16	-3.05 ± 0.18
UCACAGCAAUAUUACGCAAA	-2.74 ± 0.19	-2.91 ± 0.17
UCACAGCAAUAUUACGCAAU		-2.13 ± 0.14
UCACAGCAAUAUUACGCCAG	-1.6 ± 0.15	-0.668 ± 0.25
UCACAGCAAUAUUACGCGCA	-0.0823 ± 0.068	0.0608 ± 0.075
UCACAGCAAUAUUACGCGGC	-3.63 ± 0.23	-2.5 ± 0.28
UCACAGCAAUAUUACGCUAU		-2.23 ± 0.21
UCACAGCAAUAUUACGGAAC	-2.98 ± 0.21	-2.45 ± 0.26
UCACAGCAAUAUUACGGCAG	-2.03 ± 0.12	-0.996 ± 0.16
UCACAGCAAUAUUACGGGAC	-2.77 ± 0.21	-1.76 ± 0.18
UCACAGCAAUAUUACGGGCA	-0.496 ± 0.075	-0.337 ± 0.083
UCACAGCAAUAUUACGGGGG	-2.39 ± 0.15	-2.03 ± 0.16
UCACAGCAAUAUUACGUCGA	-0.572 ± 0.068	-0.734 ± 0.08
UCACAGCAAUAUUACGUCGC	-2.99 ± 0.19	-2.13 ± 0.19
UCACAGCAAUAUUACGUGAU	-3.64 ± 0.12	-2.76 ± 0.15
UCACAGCAAUAUUACGUGCG	-0.577 ± 0.056	-0.105 ± 0.069
UCACAGCAAUAUUACGUGUG	-4.09 ± 0.15	-2.13 ± 0.1
UCACAGCAAUAUUACGUUAU	-3.61 ± 0.12	-2.75 ± 0.12
UCACAGCAAUAUUACGUUUC	-3.8 ± 0.19	-3.02 ± 0.21
UCAGAGCAAUAUUACGAAAG	-2.84 ± 0.36	-1.6 ± 0.38
UCAGAGCAAUAUUACGAGAG	-3.72 ± 0.27	-3.27 ± 0.42
UCAGAGCAAUAUUACGAUAA		-2.46 ± 0.41
UCAGAGCAAUAUUACGAUAG	-4.05 ± 0.39	-2.38 ± 0.39
UCAGAGCAAUAUUACGAUAU		-2.32 ± 0.33
